Source: the DeepSol protein solubility set

Test: soluble on expression in E. coli; label from the status in PepcDB or PDB records

Row | Sequence | soluble on expression in E. coli
1 | MGSDKIHHHHHHMNLNALIDFMLVANNEGLGKASRASGISKATLSRRIADLEEQLGVRLIERSARGLKLTEAGEMLMARTEGPLGEVAEAMTATRDGVATPRGRLRVASPVLFSQLAMGRIGAGFYAAYPEVIIEVTAEDRLVDLVEEQFDVAIRINPDPDSRLVGRCFARDRLVVVAAPELPRPMPGAIRQTPAIVTSSFQPTHWKLDNGHLVLKPIPKLWFSSLMMVRDAAVAGGGAALIPQSIAWSQLASGQLVQWGTVSGAEPELWVLHTSRRLVSPKVRAFVDFICASNPDMSLVLKG | not soluble
2 | MGSDKIHHHHHHMETGLLLTLLNKTTSLSVNQKTGIEVVSCTFNDLINTFQKAIPNTNIKGQLCIPEYQRPYVWKEKQINRLLDDFIEYYKNTDNDKPLFYLGSIIVHKDEGTLKIIDGQQRITTLLLINSIINKEIKSGIQYTSTTSINNIKRNFSYLKSVHAKDVFDYADTEVLNYIDFDKINVTLVVTATEDLAYTFFETQNTGGVRLSGSDIIKAHHLRAISSEKNINYQARKWEGIESEKIESIIQNLTKIRFWDNRNWRRFPFYRDEKGIKEVLIEEFTENTKHDKEDISFYYSAVKMEAGRAFQMHESNYKQLKQPLSDGNNTLDYINDYVHLHDVLFNRSKKDYRVSDAFYDFNEKLMHGNSGTLFLKELLEICIITYVSRFGFYRLFEASLWLYRSIYSLRVSSSRNVREDSIFKFVFENQFIDNIIEVYTVDELILYLKRFKYTFNTDNLGVKESKDKHIGSLNNYFNEFGKTEDFKKTPKAFDKAFLTAIVTKIKENNEQ | not soluble
3 | MGSDKIHHHHHHMINPAHFDLQSLRIFLQVAQSGSLTKAAEKFHITLSALSKRIAELERTVDCALFIRMPRGLTLTPAGKELVNLAGNVLSNVERMASEMNDYAVGVRGHVHMWANTSAIIQFLPQDLASFLPTRPLIRINLEEKLSKTVVTALAMGEADIGIFVDNVGSQGVEKIPYRKDKLVVLVPPQHPLSALSDVSFNDTLGYDYVGLNSGSSLLKQLKDASDELGRVLRLRVQVSSFDGICRMIEAGLGISVLPEGAIRPEVLGTGLRAINLTDEWASRQLWLGVKSGAILQPEVTNLLTHLRQCGA | not soluble
4 | MPLCLKINKKHGEQTRRILIENNLLNKDYKITSEGNYLYLPIKDVDEDILKSILNIEFELVDKELEEKKIIKKPSFREIISKKYRKEIDEGLISLSYDVVGDLVILQISDEVDEKIRKEIGELAYKLIPCKGVFRRKSEVKGEFRVRELEHLAGENRTLTIHKENGYRLWVDIAKVYFSPRLGGERARIMKKVSLNDVVVDMFAGVGPFSIACKNAKKIYAIDINPHAIELLKKNIKLNKLEHKIIPILSDVREVDVKGNRVIMNLPKFAHKFIDKALDIVEEGGVIHYYTIGKDFDKAIKLFEKKCDCEVLEKRIVKSYAPREYILALDFKINKK | soluble
5 | SRRMKANARERNRMHGLNAALDNLRKVVPCYSKTQKLSKIETLRLAKNYIWALSEILRSG | soluble
6 | MGSDKIHHHHHHAVFVAVGIRMITSGDGRTNRYDVEAGNNTYDNAVIENSKISEKNKIQNNQSMLDDIMNSTQYPKQLKDLALKNEEALEFVFDYPAEHVKEHTIDLTEEASMDSVPLFVQWDKRWGYEKYSGNFFAASGCGPTTLSMVVVYLTHNREASPIAVAKYSKEAGYSVDGSGSSWTLISEGCMHYGVKAKAVALDESRMKAELDEGHPIVVNVGPGDFTDTGHFMVITGYDDEGFSINDPNSIEKSGKRWLFKNISSQIRAVWSMYV | not soluble
7 | MAHHHHHHMTSSSVTPDQVLAFTAPTERFLCPLTANKYGVEFYQFTIRDIEQNKVLFEVGEAPDGSADGSVTDMLARVAQLSEEEAAAARTIRYRFAPSFLRKTAVGAKLVFGVNGDQPVPKFRMIERHYFRNVLIKSFDFEFGFCIPHSTNTWEAIYDMPSLNPEWEEAIVASPFEMASDSFYFVGNELIMHNKAYYAYDGEEL | not soluble
8 | MLTPPPDSKISTTDKSLDKLSAPLDMLKQMNESTMEQTKLDELRKKMSLQAEILNKAKADNDMFFRLLIELMSLKLQGELFKEQLSKISKESGYDSAQSALIQATNSEGQSPLQYALQKQDFSTAKYFLDNGAKAGPIEKAVFEIALDSKAAKEFGFPPLPPEKEKLHPVKNFGLVLGIKTTSVDGTPSQFGHIAPTYQLMTDSVSHFAKSHPGNKNFQEIANAFQFSNEASAFKFSTPQRNPEAGNDLARRIQGGELTTIPVSCKGHAMGLSYVPDGPGSKSGYLVYTNRGLGAKSSEHGTHIFRIEDSSKITPEFINNMTSGHSNGASHDEIMSQIKAAAGNKEPIHHIKQKGQKNDNCTIANSKSNIEGILLCQKAREVGGFDKLTESDMDSVKKEYKEFTKHMRVEKVNELAKALKENPQDPDLNNLTKEYLKQHPNADPKLKQTLETALKQASESSMTLSQPGKTI | not soluble
9 | MGHHHHHHSHMEDYSQEDWGNHSQDLHGYPTDQELDEIPVTKRTLKIKQESSEEAQKRDIMQNIVQILESVQLKWELFQSWTDFSRLHLSNKLAIFGIGYNTRWKEDIRYHYAEISSQVPLGKRLREYFNSEKPEGRIIMTRVQKMNWKNVYYKFLEITISEARCLELHMEIDWIPIAHSKPTGGNVVQYLLPGGIPKSPGLYAIGYEECIERPLSPHMEQSSLDPGKEGRVDLETLSAQASLQVEIEPTRIIYCYLGIAEVRTLQQCLFLHFQANTKTFSKDWVGINGFLSQNCIVDPGVSPKSIYIKFVEVERDFLSAGSLVECLEKAIGYPLKFNN | not soluble
10 | MLARCLAFSYPASTFLIFFLRRRLSHHLWHPTYPRVLNSVRPAFRLAPFVSQKDTDMTVEQPIQVDTLVVGAGQAGVAMSEHLSKLGVPHLVLERSRVAEAWRTGRWDSLVANGPAWHDRFPGMEFDVAADAFPAKDQVADYFEAYARKFNAPIRTGVEVRKVLRNVGRPGFTVETSEGLIQAQRVVAATGPFQRPVIPPIATANDRLTQIHSAEYRNPQQLPEGAVLVVGAGSSGVQIADELQRAGRRVYLSVGAHDRPPRSYRNRDFCWWLGVLGEWDAEIAKPGREHVTIAVSGARGGQTIDFRALAHQGITLVGLTKAFAGEHVTFQADLLDNLARGDENYLALLDAADAYIARNGLDLPLEPEARRRLPDPDCVKQPILELDLQQAGITSIIWATGYAVDFSWLQVDTFSEQGKPLHQRGVSREPGVYFLGLPWLSRRGSSFIWGVWHDAKHVADHIATQRKYQAYSDARPPAATAEAPALNLSPVGAHLEHHHHHH | not soluble
11 | MGSDKIHHHHHHMLEELRTLVLFAEEGSIQNVARRLPLTQPAVTRQMQRLEDMLATTLLDRRQKPPRLTAAGLEVLARAKDILASVEALKAFAADAEPQGVLRVGLAHGLSDASIAGAIAGAAAAFPKISLRLKTGWSAELIEQFERGQLDMAIVLRPADHQGPDALGTERLCIIAQAGAHLTDARVPMPWVLSPEPCDARQTLLSSLGGERHPLIVAAEIQDPAMQMEWVRRGHGLGLMPLRLAARGLPDGLALVDLEDVDLSLQVVALRSPHLNRLAKAVEAIAQTVGEAIKIEA | not soluble
12 | MELIRFSISIPSKLLEKFDQIIEEIGYENRSEAIRDLIRDFIIRHEWEVGNEEVAGTITIVYNHDEGDVVKALLDLQHEYLDEIISSLHVHMDEHNCLEVIVVKGEAKKIKMIADKLLSLKGVKHGKLVMTSTGKELV | soluble
13 | MGSDKIHHHHHHMASFVDKLHPLVLNIGLAIHNADWNWKNVNSPFTRLYYVTEGTAQVLISGKTQILKANHMYFIPAFTKHSYICNSYFSHYYLHIYEEHQSDSNLLDNWDFPIEIPAVEIDLALFQRLCTINPHMTLQKSDPTSYDNNYTLMQNLLKNKQRTLSDKIESRGIVYQLLARFLKRAQVKMELKDNRIEEAIHYIRKHINETIDLRVLAENSCLSKDHFIRLFKKETGDTPLKYINRKKIEKAQLILITDDMSIKNVALNLAFEDYSYFNRLFKKITGITPQEYRTSYHS | not soluble
14 | RRRFDEKRREMLMGKLEEINQKRIAEALESEKKSLEKVSRSDQLRIDLITNVSHDLKTPLTSMVGYIELIKKEELSDLVRDYVDVLSERAEKLKEMINSLFSLAKASSGNIELHPEKFELNRLVEQIFADMHDHVKESELQFVKQFTEENTEIISDNMYFYRICQNLIENALKYSAKHTRVFVKTYQKESSNHLCLEITNTAGYPMDFTKEEIIERFFRGDKQRSSEGNGLGLAIVSTYVKALGGEFDIKIDCDQFKACVEMPLSAITIT | not soluble
15 | MKHKLIDDELKYLDERSRDIFRHIVEAYLNDGGPVGSRNLSRLLRQTLSPATIRNVMSDLEHLGLIYAPHVSAGRMPTQSGLRFFVDAFMEAGDLPNEERENIEAQVKEAGHAQSVEHFLVQASQVLSDLSRGAGLVLATKHEGTLKHIEFVRLDGEHALAVLVTQQGGVENRIVHLPEGVTHAQLTEATNFLNAHIQGLTLSEAKEEIARLCSETRAALDHLSHHLVETGLALWGGEGADHKIRLIVRGRSNLLEDVKAEEDLKRLRHLFDDLETRESMAQLLDLTDEGSGVRIFIGSENKLFSLSGSSLVVAPYRDSQQKVIGALGVIGPTRLNYARIVPMVDYTAQLVSQLLR | not soluble
16 | MKQLYGVIGNPIGHSLSPVMHNDAFEHLKMDAHYHAFLVKEEVLGEAVRGLKALGISGFNVTTPHKVAIMDYLDEIDPLAKQIGAVNTVVHKDGKLIGYNTDGIGFVRALQSISSEPLQEKRILLLGAGGASRAIYFSLADAGVKEIDVANRTVDKAKELIAACTATVHSVALSLEKATKEQGNYDIIIQTTTIGMHPRVEHTPLQISSLKKGTIVSDIIYNPFETKILCEAKEQGAIIQNGIDMFVYQGALAFEMWTGCVPNIERMKQLVIRNLEANIYVNRKTKKIFTCTSTSFNTNFSSRKRRSK | not soluble
17 | MHHHHHHSSGVDLGTENLYFQSMAHNKIPPRWLNCPRRGQPVAGRFLPLKTMLGPRYDSQVAEENRFHPSMLSNYLKSLKVKMGLLVDLTNTSRFYDRNDIEKEGIKYIKLQCKGHGECPTTENTETFIRLCERFNERNPPELIGVHCTHGFNRTGFLICAFLVEKMDWSIEAAVATFAQARPPGIYKGDYLKELFRRYGDIEEAPPPPLLPDWCFEDDEDEDEDEDGKKESETGSSASFG | soluble
18 | GMDETPIFKIKKLTIAENDRSEYIRYAEKNMHDSIPAEEGTLLIGSGHDDAHGEDNYEIEVFRNKGAEDLHIAGSHADDFVETVNKIATKQKVIDLHPEVITTKAQRALNSYADNFVMRLIKVEVKDADAEKFSHAVKKEMTTSMASEPGMEIMMSGTNIDNPNEWYFIEVYANDEAYDIHVKTPHYKEYIEETDGMVKSRDVKTLVRDTLATQGAIVLD | soluble
19 | MKENPSFLKEQIITYLGNKRALLSFLNNGFKVAKKELGKDKFSFCDIFSGSGVVSRFAKAHSNYILANDLEDYSKLINECYLANKDKDLLQNIKKYYKNLIQNLDFQKGFISELYAPKDDDDIKKNERVFYTFKNALYLDTIRQKIENEIPKELRHFFIAPLIYEASVHSNTSGVFKGFYKGKDGIGKFGGEGQNALKRIKGEIELKMPIFSNFSCEFEVMQKDANMLAKELDFFDVVYLDPPYNQHPYSSNYFMLNLIANYKKPEEISKISGIPKDWNRSTFNKSKFAQDALFELINDLKARVILLSYNCEGFVKKEIFLKRLSTLGKCRILEQKYNTFRASRNLKNRNIHLHEQLYILVKN | not soluble
20 | GQDSEVLLDGVAKLSSHNNVIEDAIEGVDLTLKGKSEPNKPPAEIGVEYDRQSVRSDIENFVSAYNSFYQTSQALSSVDPTTGQKGPLAGDSTVRSADSRLKAVFSSRIDQAPENLKSLTEFGITTTRQGTLEINYDMLDRQLNNNFNELEKFFGGNTGFAKRIEDAIHGITGITGSIRTREKSLTEQNYRLNDDQAALDRRMEGLEKRTHAKFTAMQDATGKMQGQLGALMSALG | not soluble
21 | MIYQKQRNTAETQLNISISDDQSPSHINTGVGFLNHMLTLFTFHSGLSLNIEAQGDIDVDDHHVTEDIGIVIGQLLLEMIKDKKHFVRYGTMYIPMDETLARVVVDISGRPYLSFNASLSKEKVGTFDTELVEEFFRAVVINARLTTHIDLIRGGNTHHEIEAIFKAFSRALGIALTATDDQRVPSSKGVIE | soluble
